Source: article PMC6201590, “Fibronectin type III domain-containing protein 5 interacts with APP and decreases amyloid β production in Alzheimer’s disease” (Molecular Brain, 2018)

Biological target: full-length APP770 tagged with V5 (UniProt P05067-1 18-770)
Experiment: cell-based or functional assay

full-length APP770 tagged with V5, sequence (P05067 18-770): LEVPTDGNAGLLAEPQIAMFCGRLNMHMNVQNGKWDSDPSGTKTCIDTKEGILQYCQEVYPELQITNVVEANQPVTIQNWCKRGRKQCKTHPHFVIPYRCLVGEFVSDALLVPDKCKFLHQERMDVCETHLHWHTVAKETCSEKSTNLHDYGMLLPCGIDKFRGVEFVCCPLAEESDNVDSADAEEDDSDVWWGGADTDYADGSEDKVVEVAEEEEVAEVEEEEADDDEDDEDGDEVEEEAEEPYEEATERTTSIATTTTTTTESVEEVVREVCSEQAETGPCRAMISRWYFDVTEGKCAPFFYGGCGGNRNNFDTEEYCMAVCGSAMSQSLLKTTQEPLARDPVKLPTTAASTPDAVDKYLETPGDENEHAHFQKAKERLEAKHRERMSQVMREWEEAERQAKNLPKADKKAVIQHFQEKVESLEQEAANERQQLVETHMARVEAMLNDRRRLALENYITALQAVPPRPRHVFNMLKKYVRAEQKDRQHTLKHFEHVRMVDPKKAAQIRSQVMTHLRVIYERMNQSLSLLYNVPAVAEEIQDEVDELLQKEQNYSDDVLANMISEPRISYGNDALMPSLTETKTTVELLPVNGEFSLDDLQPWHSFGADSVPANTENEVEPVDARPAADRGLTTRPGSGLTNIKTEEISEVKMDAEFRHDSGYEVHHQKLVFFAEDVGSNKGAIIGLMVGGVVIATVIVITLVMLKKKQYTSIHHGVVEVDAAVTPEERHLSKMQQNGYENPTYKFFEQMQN

Aβ40 and Aβ42 secreted into the medium (ELISA) of HEK293 cells transfected with APP770-V5 and FNDC5-HA, with Aβ1–16 peptide treatment against without it: ~1.4 fold
B1: Fibronectin type III domain-containing protein 5 tagged with HA at the C-terminus (natural protein, mouse, UniProt Q8K4Z2 60-240, looked up)
chain: DSPSAPVNVTVRHLKANSAVVSWDVLEDEVVIGFAISQQKKDVRMLRFIQEVNTTTRSCALWDLEEDTEYIVHVQAISIQGQSPASEPVLFKTPREAEKMASKNKDEVTMKEMGRNQQLRTGEVLIIVVVLFMWAGVIALFCRQYDIIKDNEPNNNKEKTKSASETSTPEHQGGGLLRSKI
